Measurements as given in PMC8262878, “GP96 Drives Exacerbation of Secondary Bacterial Pneumonia following Influenza A Virus Infection” (mBio, 2021).

Biological target: T1, recombinant glycoprotein 96 (GP96) (human, UniProt P14625 22-803)
T1 construct: The purification of GP96 and the fate of the GST tag are not described; also called GRP94; Grp94; source: E. coli BL21(DE3), pGEX-6P-1 vector; recombinant protein
Assay: SPR; BIAcore X-100; GP96 amine-coupled to a CM5 chip; AliA or AliB as analyte at 31.3-500 nM; HBS-P buffer (0.01 M HEPES pH 7.4, 0.15 M NaCl, 0.005% surfactant P20), 37°C, 30 ul/min; 1:1 Langmuir binding model
Settings: both partners purified

T1 sequence (P14625 22-803): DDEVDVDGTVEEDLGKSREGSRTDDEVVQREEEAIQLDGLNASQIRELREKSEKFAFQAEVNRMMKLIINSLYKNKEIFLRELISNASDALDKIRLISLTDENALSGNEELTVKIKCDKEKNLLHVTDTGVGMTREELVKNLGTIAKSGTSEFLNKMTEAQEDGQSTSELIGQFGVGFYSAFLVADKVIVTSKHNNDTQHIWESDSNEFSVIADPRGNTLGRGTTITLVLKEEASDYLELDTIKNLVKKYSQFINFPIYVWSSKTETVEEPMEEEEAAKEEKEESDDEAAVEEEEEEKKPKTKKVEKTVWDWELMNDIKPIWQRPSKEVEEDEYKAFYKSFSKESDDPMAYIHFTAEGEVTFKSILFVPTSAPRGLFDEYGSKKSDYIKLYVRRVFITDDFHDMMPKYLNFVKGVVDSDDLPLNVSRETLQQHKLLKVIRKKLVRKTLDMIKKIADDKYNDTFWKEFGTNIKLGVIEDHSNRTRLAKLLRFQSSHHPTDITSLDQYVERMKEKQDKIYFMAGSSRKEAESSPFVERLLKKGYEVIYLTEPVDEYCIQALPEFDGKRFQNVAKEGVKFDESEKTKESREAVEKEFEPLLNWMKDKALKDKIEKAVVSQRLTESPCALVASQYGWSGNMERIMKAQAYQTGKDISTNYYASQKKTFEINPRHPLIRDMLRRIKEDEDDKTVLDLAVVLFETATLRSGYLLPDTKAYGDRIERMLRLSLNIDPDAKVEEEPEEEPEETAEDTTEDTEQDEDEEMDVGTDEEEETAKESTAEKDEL

Row | Binder | Kd [nM] | koff [s⁻¹] | kon [M⁻¹ s⁻¹]
1 | recombinant AliB (natural protein, also called Ali protein; source: E. coli XL10-Gold, pQE30 vector, purified (QIAexpress protein purification system)) CGNSSTASKTYNYVYSSDPSSLNYLAENRAATSDIVANLVDGLLENDQYGNIIPSLAEDWTVSQDGLTYTYKLRKDAKWFTSEGEEYAPVTAQDFVTGLQYAADKKSEALYLVQDSVAGLDDYITGKTSDFSTVGVKALDDQTVQYTLVKPELYWNSKTLATILFPVNADFLKSKGDDFGKADPSSILYNGPFLMKALVSKSAIEYKKNPNYWDAKNVFVDDVKLTYYDGSDQESLERNFTAGAYTTARLFPNSSSYEGIKEKYKNNIIYSMQNSTSYFFNFNLDRKSYNYTSKTSDIEKKSTQEAVLNKNFRQAINFAFDRTSYGAQSEGKEGATKILRNLVVPPNFVSIKGKDFGEVVASKMVNYGKEWQGINFADGQDPYYNPEKAKAKFAEAKKELEAKGVQFPIHLDKTVEVTDKVGIQGVSSIKQSIESVLGSDNVVIDIQQLTSDEFDSSGYFAQTAAQKDYDLYHGGWGPDYQDPSTYLDIFNTNSGGFLQNLGLEPGEANDKAKAVGLDVYTQMLEEANKEQDPAKRYEKYADIQAWLIDSSLVLPSVSRGGTPSLRRTVPFAAAYGLTGTKGVESYKYLKVQDKIVTTDEYAKAREKWLKEKEESNKKAQEELAKHVK | 48.5 | 10.1 | 2.09e+08
2 | recombinant AliA (natural protein, also called Ali protein; source: E. coli XL10-Gold, pQE30 vector, purified (QIAexpress protein purification system)) CSGSGSSTKGEKTFSYIYETDPDNLNYLTTAKAATANITSNVVDGLLENDRYGNFVPSMAEDWSVSKDGLTYTYTIRKDAKWYTSEGEEYAAVKAQDFVTGLKYAADKKSDALYLVQESIKGLDAYVKGEIKDFSQVGIKALDEQTVQYTLNKPESFWNSKTTMGVLAPVNEEFLNSKGDDFAKATDPSSLLYNGPYLLKSIVTKSSVEFAKNPNYWDKDNVHVDKVKLSFWDGQDTSKPAENFKDGSLTAARLYPTSASFAELEKSMKDNIVYTQQDSITYLVGTNIDRQSYKYTSKTSDEQKASTKKALLNKDFRQAIAFGFDRTAYASQLNGQTGASKILRNLFVPPTFVQADGKNFGDMVKEKLVTYGDEWKDVNLADSQDGLYNPEKAKAEFAKAKSALQAEGVQFPIHLDMPVDQTATTKVQRVQSMKQSLEATLGADNVIIDIQQLQKDEVNNITYFAENAAGEDWDLSDNVGWGPDFADPSTYLDIIKPSVGESTKTYLGFDSGEDNVAAKKVGLYDYEKLVTEAGDETTDVAKRYDKYAAAQAWLTDSALIIPTTSRTGRPILSKMVPFTIPFALSGNKGTSEPVLYKYLELQDKAVTVDEYQKAQEKWMKEKEESNKKAQEDLAKHVK | 34 | 0.000785 | 23100
